Source: the nanobody polyreactivity screen of Harvey et al. (2022)

Test: yeast display, Sf9 membrane polyspecificity reagent, FACS + sequencing; frameworks hold sequencing errors
In short: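 A nanobody's polyreactivity label depends on the gate it was sorted from. Yeast display cells were stained with 10% biotinylated, detergent-solubilized Sf9 membrane reagent for 1 hour at 4 °C, enriched on streptavidin microbeads and sorted by FACS. The low and high (top ~1%) gates were set on anti-HA fluorescence for expression and streptavidin fluorescence for reagent binding.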

| Sequence | polyreactivity (PSR sort gate) |
| --- | --- |
| QVQLVESGGGLVQAGGSLRLSCAASGRIFPKNAMGWYRQAPGKERELVASISSAGSTNYADSVKGRFTISRDNAKNTVYLQMNSLKPEDTAVYYCAAYHQSFGGVKGYYWGQGTQVTVSS | high polyreactivity |
| QVQLVESGGGLVQAGGSLRLSCAASGRIFPKYAMGWYRQAPGKERELVAGITKRVGSTYYADSVKGRFTISRDNAKNTVYLQMNSLKPEDTAVYYCAKRWVSRTHGYWGQGTQVTVSS | low polyreactivity |
| QVQLVESGGGLVQAGGSLRLSCAASGRIFPKYAMVWYRQAPGKERELVAGITKRVGSTYYADSVKGRFTISRDNAKNTVYLQMNSLKPEDTAVYYCAADYRYLIDYLDPEKEGMDYWGQGTQVTVSS | low polyreactivity |
| QVQLVESGGGLVQAGGSLRLSCAASGRIFPPNAMGWYRQAPGKERELVAGITSSGDTTYYADSVKGRFTISRDNAKNTVYLQMNSLKPEDTAVYYCAKDEVYADDRSALFDYWGQGTQVTVSS | low polyreactivity |
| QVQLVESGGGLVQAGGSLRLSCAASGRIFPPYAMGWYRQAPGKERELVAAISCGGSRTYYADSVKGRFTISRDNAKNTVYLQMNSLKPEDTAVYYCAAKNYLAKSGDYWGQGTQVTVSS | high polyreactivity |
| QVQLVESGGGLVQAGGSLRLSCAASGRIFPQYAMGWYRQAPGKERELVAAISVSGTRTYYADSVKGRFTISRDNAKNTVYLQMNSLKPEDTAVYYCNTLGKYDGFYYWGQGTQVTVSS | high polyreactivity |
| QVQLVESGGGLVQAGGSLRLSCAASGRIFPRNAMGWYRQAPGQERELVAAITKSGGSTYYADSVKGRFTISRDNAKNTVYLQMNSLKPEDTAVYYCNAVQYRNYYWGQGTQVTVSS | high polyreactivity |
| QVQLVESGGGLVQAGGSLRLSCAASGRIFPRYAMGWYRQAPGKERELVAAITTGGSTYADSVKGRFTISRDNAKNTVYLQMNSLKPEDTAVYYCAKRDSNKRDYWGQGTQVTVSS | low polyreactivity |
| QVQLVESGGGLVQAGGSLRLSCAASGRIFPSYAMGWYRKAPGKERELVAAISDSDGSTYYADSVKGRFTISRDNAKNTVYLQMNSLKPEDTAVYYCAAEGSFPAYDYWGQGTQVTVSS | low polyreactivity |
| QVQLVESGGGLVQAGGSLRLSCAASGRIFPSYAMGWYRQAPGKERELDATISSGGRTYYADSVKGRFTISRDNAKNTVYLQMNILKPEYTAVYYCNADRTQDRNPYTYATFDYWGQGTQVTVSS | low polyreactivity |
| QVQLVESGGGLVQAGGSLRLSCAASGRIFPSYAMGWYRQAPGKERELVAAISYSGASTYYADSVKGRFTFSRDNAKNTVYLQMNSLKPEDTAVYYCNAESGPKYYWGYAGTFDYWGQGTQVTVSS | low polyreactivity |
| QVQLVESGGGLVQAGGSLRLSCAASGRIFPSYAMGWYRQAPGKERELVATISSGGRTYYADSVKGRFTISRDNAKNTVYLQMTSLKPEDTAVYYCARRSLYHVRTQIYEYWGQGTQVTVSS | low polyreactivity |
| QVQLVESGGGLVQAGGSLRLSCAASGRIFPTNAMGWSRQAPGKERELVASITRSGSTYYADSVKGRFTISRDHAKNTVYLQMNSLKPEDTAVYYCAGYAYIFLDWGGYPYYLYEYDYWGQGTQVTVSS | low polyreactivity |
| QVQLVESGGGLVQAGGSLRLSCAASGRIFPTNAMGWYRQAPGKERVFVAAITWGGGSTYYAVSVKGRFTISRDNAKNTVYLQMNSLKPEDTAVYYCAATGHIVFFRSYDYGYWGQGTQVTVSS | low polyreactivity |
| QVQLVESGGGLVQAGGSLRLSCAASGRIFPTYAMGWYRQAPGKERELFAGITSGGRTNYADSVKGRFTISRDNAKNTVYLQMNSLKPEDTAVYYCAKRVWPRDQYGKRNPRMDYWGQGTQVTVSS | high polyreactivity |
| QVQLVESGGGLVQAGGSLRLSCAASGRIFPTYAMGWYRQAPGKERELVAAITWRGGRTYYADSEKGRFTISRDYAKNTVYLQMNSLKPEDTAVYYCAAGWLTRSYEYDYWGQGTQVTVSS | high polyreactivity |
| QVQLVESGGGLVQAGGSLRLSCAASGRIFPTYAMGWYRQAPGKERELVAGITSGGRTNYADSVKGRFTISRDNAKNTVYLQMNSLKQEDTAVYYCDKRVWPRDQYGKRNPRMDYWGQGTQVTVSS | high polyreactivity |
